Reference: paper PMC6459815

Target: recombinant CD47 (integrin associated protein), K24-S139, GST-fused (human)
Assay: SPR; Biacore X100; recombinant CD47 immobilised on a CM5 chip (amine coupling), analyte at 0.125, 0.25, 0.5, 1 and 2 uM, single-cycle kinetics, 120 s contact, 180 s dissociation (last cycle 580 s); HBS-EP+ (10 mM HEPES pH 7.4, 150 mM NaCl, 3 mM EDTA, 0.05% P20)

Substance: recombinant PfMSA180-Tr4 (PfMSA180 truncate 4, residues A805-P1093) (domain or fragment)
- Kd: 2.06 nM
- stoichiometry N: 1
